# Experiment: label from the status in PepcDB records
row,Sequence,protein production
1,MVPLESSTLFGVYGGFTDSMMMRETTTNNQDPSGDTCSVSDPAPGSTDYYNISSSPVKDDGTAPKNDVVCSINVDDNKDKSWLRLGIGPEENTDGSYKLQRCCSKNGSGRENSLELSLFSSSSTAVSSSIDHLPTQPLQLPYHHDQLLTMRGPSLVYNHQLMKPQTLLNRGFSFPSSKPWIPQYMAPFRPSSLSDRDVTNNNSLSRSCCVDEGGAGPSSEFRVLDPPRRPHSGLWFLLQASQFQ,failed
2,MVPMASNNLAYIKLRLLSLLVGLGIAALASLIIYAVAYYLFGIYSIGIIFGVFVLVLMMDLLQWFIGPYIVDMVYRAKKADPNRYGNIIAIVEEVAKLNGIRPPTLYISEVSFPNAFAYESPIAGRRIAITRPLLGILNEDELRAVIGHEIGHLKHHDSAVIMAIGLIPTLIFYFAYTTLFAGDRRNGGSAIILALVLMVVSFLFNIMVLSVNRLRESYADANAALTIPNGARNLQTALAKIVRYGSSAKNTAASMLLFANYDMDREDVETLIDKWRTMRVGILSDLFSDHPHPAKRIRLLDKLQDSS,failed
3,MVPPKLKQALELFKSLPKELRSQVLLEYAAKVPPPPPGVELERVHECQTPFFVHADVEGGKVRLYFHVPDEAPTVKAFAGLLREGLEGESPEAVLEVPPGFYRGYGLEEFFTPLRLRGLEAALLRLQAQVRKALTS,not failed
4,MVQAWYMDESTADPRKPHRAQPDRPVSLEQLRTLGVLYWKLDADKYENDPELEKIRKMRNYSWMDIITICKDTLPNYEEKIKMFFEEHLHLDEEIRYILEGSGYFDVRDKEDKWIRISMEKGDMITLPAGIYHRFTLDEKNYVKAMRLFVGEPVWTPYNRPADHFDARVQYMSFLEGTA,not failed
5,MVQEIIVDSGDIEFLTTPKEYKQQLLSLIECARQRIFITALYLQDDEAGREILHALYQAKANFPTIEINIFVDFNRGQRGLIGEKASLGNRALYLKLAHEYPHTVNIYGVAVKRKELEHHHHHH,failed
6,MVQRITIAPQGPEFSRFVMGYWRLMDWNMSARQLVSFIEEHLDLGVTTVDHADIYGGYQCEAAFGEALKLAPHLRERMEIVSKCGIATTAREENVIGHYITDRDHIIKSAEQSLINLATDHLDLLLIHRPDPLMDADEVADAFKHLHQSGKVRHFGVSNFTPAQFALLQSRLPFTLATNQVEISPVHQPLLLDGTLDQLQQLRVRPMAWSCLGGGRLFNDDYFQPLRDELAVVAEELNAGSIEQVVNAWVLRLPSQPLPIIGSGKIERVRAAVEAETLKMTRQQWFRIRKAALGYDVP,not failed
7,MVQTKRYAGLTAANTKKVAMAAPMFSIIIPTLNVAAVLPACLDSIARQTCGDFELVLVDGGSTDETLDIANIFAPNLGERLIIHRDTDQGVYDAMNRGVDLATGTWLLFLGADDSLYEADTLARVAAFIGEHEPSDLVYGDVIMRSTNFRWGGAFDLDRLLFKRNICHQAIFYRRGLFGTIGPYNLRYRVLADWDFNIRCFSNPALVTRYMHVVVASYNEFGGLSNTIVDKEFLKRLPMSTRLGIRLVIVLVRRWPKVISRAMVMRTVISWRRRR,failed
8,MVREGFDVTLVEARERGGLETSYANGGQLSYRYVAPLADSGVPAQALGWLLRNDAPLRLRPRLDPAQWRWLLGFLAACRGSLNRRNAAHLLRLALLSQRTLQDWREEDGLDGFDWRRNGKLVAFRQPASFARARQGLADPSAQFVLTAAECLALEPALSAAPFVGGIHTPDEEVADCHAFCVQLAERLQASGHCRQLHGRRVTKIVEGGAAVRGVEVGGDLIEADHVVLAAGYRSAELMLPGLRLPLYPLKGYSLTLPVGAQHRAPDTSITDYDRKIVYARIGERLRIAAMVDIVGFDPGLEPARLALLRQQARDTFPQGGDFDAAVEWAGMRPATPTGVPLVGNGGYRNLWLNLGHGALGFTLACGSGRLLAEQIGRRPPSIDTTGLLPRGALAG,failed
9,MVRKLRHFGDRLREEPDKFRFVLSRALWVTGLCRLITFSFPAGYRMRFYPSAISAGLWRDRNFRSEDADFVAGYLRPGETFVDVGANVGQLSLVAARRVTSSGRTIAIEAHPRTCNFLRGNVRLNGLPIEIHNVAVGSECGELFFTNFRSDDMNFAYAASPRNGSALRVPVATLDSIIGERPVDLLKVDVEGFECDLLRGAAQTLHNCRCLYIEDSEPNLRRAGSSRVELYDRLSEGGFELFHVRGKRLERVSVQAAGPLTENLIAVRGSDLPDALARTGFCLA,failed
10,MVRLDLPWDLVDEILSRLPATSLGRLRFTCKRWNALFKDPEFITKQFHKAAKQDLVLMLSNFGVYSMSTNLKEIPNNIEIAQVFHCNGLLLCSTEEGNKTKLVVVNPCTGQTRWIEPRTDYNYNHDIALGYGNNSTKKSYDSYKILRITYGCKLVEIFELKSNSWRVLSKVHPNVEKHYYGGVSFKGNTYWLSYTKFNILSFDFTTETFRSVPLPFLYQDGFVTLALSVVREEQLLLLRSRFDMGQVGIWMCNKIDTETVLSWSKSFTLEFDSLRDLPVMSILRIFIEEDKKVIVVDCDDRWKENMIYIVGKNGFKKLSYEKDRSNLWRLPFFFSYVPSLVGLYPPM,failed
11,MVRLIFSDIDGTLINSNFKVTPKTRQGIKQIVAQGATFVPISARMPEAITPIMEQIGIDSYIISYNGALIQDMQQKTIASHTMDGQVALQVCSYVSKHYSKIAWNVYRYHEWYSCDKENEWVQKEEEIVGLQSKEMSLMELEKQDRIHKLLLMGEPSLMGELENTLKAQYPHLSIAQSAPYFIEIMAPGIEKGKSAKTLADYLDISLADSIAFGDNYNDLNLLEIVGKGFVMGNAPKDLQERIGNVTQDNDNDGIYYALVEYMEN,failed
12,MVRNMLIESVLFLAAGLFMLSYGSDWFVLGASRVAKQFNISSFVIGATIVAFGTSLPEIVTSAYAASTGSVELAVGNALGSCIANIGLVLGLSLIISTVFIKNRSVLKNGYLYIIYTIIFTAIGYNGFSFFDGIFLLFLLLVYVVYTIKSGEMDDEEHEKSITFKKAIIYLLIGLLFVILGSSFFVDGAKGLASAFGVSEKIIGFTIVAFGTSLPELSVSFAAARQKLGGIVIGNVIGSNIANMFGALAIASIIHEIPAVKFELSVNILMVLLLIAMMSKEKIKAVLNLNSTKEYLSKITKADGLILILIYLLFVLGLTGIF,failed
13,MVRNSMKAEYDIDHLPHQTFYGDYSKTLVPMNKNSQIITKIKPKIRIIHIFAPEIINTDVKNFRTLVQSLTGKPEITKTGSKKKITNTNFPAPPGLPQDSGQEHTAELDNRIIGSHVVKEEWGSSSNTNTYFDFDGLIDLDEDDNIFSSRWFDLQQQ,failed
14,MVRRTRAEMEETRATLLATARKVFSERGYADTSMDDLTAQASLTRGALYHHFGDKKGLLAAVVEQIDAEMDERLQAISDTAEDDWEGFRCRCRAYLEMALEPEIQRIVLRDARAVLGGASPDSQRHCVESMQRLIDNLIRQGVVAEADPQALASLIYGSLAEAAFWIAEGEDGNARLAQGVAALELLLRGLLVKPR,not failed
15,MVRVCACLIVKNEAAHLARCLGSVQPWVDDIVVVDTGSTDETPAIARQFTERLFTFPWQDDFAAARNYSLEQATGDWILVIDADEVLVTLQEPPVPLGQQLAGSPFTAYQLLRREIGTGEQFSDFAIVRLFRNLPTLRYQGRFHEQLVSTAAAPLTIGTLETLRIDHYGYQPAQIQAKMRDRNIPILERIRASEGLPLHLLFALADMYQAVNNPVEAENCYQELFDRLLPHLLSGQLPENAPGALPEILNQLGRRLLATGDHDTLQLLCQQGLAWFPTYPPLNDLAGRWLMTLGFPLGATAYFEYCLELGRTNGYSKQMIFPLGYVREIAAEQLGRAYEALGDRERAAAAFAQAAALRQGKAHPQLEHHHHHH,not failed
16,MVRVVRHSRGTCNRGLYEVRELARNRTLQQWGVEDSAELYGIRNWGAGYFDVAQNGDVVVYPFGHNRGPAVSIPEIIGGMRERGYDMPVLLRIENILDSQITSLHTSFRNAIGSLGYKGEYRGIFPIKVNQQQQVVEKIAQFGSHYHHGLEVGSKAELIAAVSQLRDREACLVCNGYKDEEFIDLGLHAVRLGFMCIFVLEMPGELDLILERGEALGVKPIIGVRAKLSVKAGGHWTDSGGERSTFGLTTSQIVDVVDRLKEKGMLDCFKLLHYHLGSQVPNIRDIRAAVMEACRIYAGLVQEGAAMGFLDLGGGLAVDYDGSHTNFVSSRNYTLDEYCADIVEAVMTTLDEQNIPHPHIVTESGRATVAYYSMLLFNILDVSRVEIGNLPDALPEDTPEPVRNMREVLAGMTLRNLQECYNDALYYRDAVRQLFLTGQVTLRQRTLSERLFWAIMKRIAQEKQKLKHVPKDLAEIDVALADIYYGNFSVFQSLPDSWAIDQLFPVMPVHRLQELPSRQGILSDITCDSDGRIDHFIDPQGMKGTLDLHPLRDGEEYYLGVFLVGAYQETLGDLHNLLGDTNVVSVRVHEDGTYEFVREIRGDSVADILSYVEYDPRRIYEDIRELAERAVREGRITASDRFRVMQAYEDGLRGYTYFERLEHHHHHH,failed
17,MVSFRSRSNPAVVILGLGRFGMALGEELVHSGVEVMGIDTNPAVVDKASAILTYAAVADTTSEEALRQLAVNEASRVVIGIGSDMGASLLTASAVVEFNIPSIWAKALNNSHAKILKQIGVHHIIRPEQDTGRRIAHLMNGRVQEYAEFDRDYAIVKIAPPVSALGKKVCDFDRVQIIAVRPAGGMFRQSKPEMVLRSGDLILAAGNPDELERFGTLD,failed
18,MVSLVMSGLTFWAVNTIQQDAQVNDTRFGRDLGLLLAANVAPLVADHNLTEVAQFSQRFYSSTSSVRYMLYADETGKIFFGIPFWEPEVENSLSIERRIQLPEEYPGDGEKPMVRQHMSPDGIVTDVFIPLIVDKKYLGVLAIGINPNQTAVISTNFTRDVTIAVFITIWVMVILAGVVNALTITKPIKELLVGVKQIAAGNFKQRIDLPLGGELGELILNFNEMAERLERYEEQNIEELTAEKAKLETLVSTIADGAVLIDNNMQVILVNPTARHIFGWEGADDVVGSNVLHHLPPAVQMEITRPLYEMAAGECDSAEFRLTLNQPSNRTIRILLTTVLNLQRESIKGIAITVQDITREVELNEAKSQFISNVSHELRTPLFNIKSFIETLHDYGEDLSLEERQEFLQTVNHETDRLTRLVNDVLDLSKLESGRSYSFDGVDLAQAIEQTLRTYQLNARDKGIELIQDVAPGLPLVLGNYDLLLQVLANLVGNALKFTSSGGKIAIRTYVLNTKSNSPNQPAQVRIEVSDTGIGIAQEDQQAIFDRFFRVENRVHTLEGTGLGLSIVRNIVERHRSRVNLVSEVGVGTTFWFDLILFEDEAPKKMVESGEEKAAMPTS,failed
19,MVSRIPTGNRGQGNGIEQSASSHATEATPWLGVNLPYGHWLPSSARSVVSRASSLLGGLANFRWGGRPASARPAPNIRSAAIAPAQQTLPPELWQQIATLAGARPRRAMREVSLELRNASRAVVTHLTISDPAMFRQLSLYPALKSVRFKGELTLEALKALPPELEHLEIGRCTGSAISAEGLAHLASMPLKSLNLNGIEIGVEGARTLAASKSLVSLSLIGCGIGDRAAQALVASRSIQCLDLSVNRIGRDGAQALAGAPLVSLNLHNNEIGNEGARVLATSRTLTSLDVSNNGVGNAGAEAFAGNTVLKQLSLAGGMISGDGAQALADNKSLTDLDLSNNRLGDAGAQALADSESFVSLKLGGNEIGADGAEALARNVVLQSLNLSYNPIGFWGVNALGRAKLRKLDLCACAIDSDGASALARNTSLASLYLGSNRIGDDGARALAKNSTLTLLNLSGNNIHAVGAQALASNDSLITLDLSRNGIGDDGTAALACHPRLTSLNLSRNQIGSTGAQQLAKSATLAELDLSENRIGPEGAEALARSTVLTTLNVSYNAIGEAGARALAESVSLTSLDARRNGIGEDGAKVLEANTRITGTPQNPNFLAEDVPRPDVRWRD,failed
